The numbers were not newly measured in patent publication US7141590B2, “Pharmaceutical uses and synthesis of nicotinanilide-N-oxides” (UCB SA, priority 2000, dated 2006), which cites them from elsewhere.

Bounds are passed on as bounds.

As a reminder, the IC50 is the midpoint of a concentration-inhibition curve. One may read the Ki as a dissociation constant, usually derived from enzyme kinetics or from competition with a known ligand.

Series [1] has as its target T1, human CXCR2 (IL8RB) chemokine receptor (Homo sapiens, UniProt P25025).
T1 construct: host or cells: CHO cells
T1 sequence (P25025 1-360): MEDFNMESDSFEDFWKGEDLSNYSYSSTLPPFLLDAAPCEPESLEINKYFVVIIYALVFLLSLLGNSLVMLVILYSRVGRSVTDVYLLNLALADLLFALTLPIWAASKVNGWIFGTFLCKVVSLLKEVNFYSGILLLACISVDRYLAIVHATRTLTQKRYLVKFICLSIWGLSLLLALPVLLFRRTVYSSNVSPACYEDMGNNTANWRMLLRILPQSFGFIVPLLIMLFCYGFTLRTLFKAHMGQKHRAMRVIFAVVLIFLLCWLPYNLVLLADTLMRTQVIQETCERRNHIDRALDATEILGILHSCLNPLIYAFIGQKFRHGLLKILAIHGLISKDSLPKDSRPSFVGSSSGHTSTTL
The note with it: CXCR2 reference data; cited from earlier work.

The target of series [2] is T2, human CXCR1 (IL8RA) chemokine receptor (Homo sapiens, UniProt P25024).
T2 construct: host or cells: CHO cells
T2 sequence (P25024 1-350): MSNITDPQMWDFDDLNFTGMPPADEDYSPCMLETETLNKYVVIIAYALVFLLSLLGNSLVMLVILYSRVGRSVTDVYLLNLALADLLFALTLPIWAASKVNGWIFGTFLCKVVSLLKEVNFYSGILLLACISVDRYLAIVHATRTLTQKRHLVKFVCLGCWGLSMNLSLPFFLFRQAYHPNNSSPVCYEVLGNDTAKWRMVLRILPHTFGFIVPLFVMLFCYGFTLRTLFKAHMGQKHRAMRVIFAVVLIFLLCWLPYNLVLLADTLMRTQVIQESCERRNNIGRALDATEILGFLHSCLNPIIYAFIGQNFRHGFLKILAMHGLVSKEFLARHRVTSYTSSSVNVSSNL
The settings on record: CXCR1 reference data; cited from earlier work.

B1: NAP-2: Neutrophil Activating Peptide-2 (protein, UniProt P02775 59-128, looked up)
Neutrophil-activating peptide …: AELRCMCIKTTSGIHPKNIQSLEVIGKGTHCNQVEVIATLKDGRKICLDPDAPRIKKIVQKKLAGDESAD
modifications: Neutrophil-activating peptide 2
Take B1: in series [1], the concentration for half-maximal inhibition (IC50) was 3.1 nM, the Ki was 2.2 nM and the nH is 0.6. Moreover, the IC50 in series [2] is above 10000 nM.
